Results on one molecule are retold here after patent US20220281969A1 (ANTLERA THERAPEUTICS, published 2022).

This assay addresses T1, recombinant human LRP6-Fc chimera (human, UniProt O75581 20-1370).
T1 construct: extracellular domain; also called human LRP6 chimera; not shown: Fc part of the chimera
T1 sequence (looked up): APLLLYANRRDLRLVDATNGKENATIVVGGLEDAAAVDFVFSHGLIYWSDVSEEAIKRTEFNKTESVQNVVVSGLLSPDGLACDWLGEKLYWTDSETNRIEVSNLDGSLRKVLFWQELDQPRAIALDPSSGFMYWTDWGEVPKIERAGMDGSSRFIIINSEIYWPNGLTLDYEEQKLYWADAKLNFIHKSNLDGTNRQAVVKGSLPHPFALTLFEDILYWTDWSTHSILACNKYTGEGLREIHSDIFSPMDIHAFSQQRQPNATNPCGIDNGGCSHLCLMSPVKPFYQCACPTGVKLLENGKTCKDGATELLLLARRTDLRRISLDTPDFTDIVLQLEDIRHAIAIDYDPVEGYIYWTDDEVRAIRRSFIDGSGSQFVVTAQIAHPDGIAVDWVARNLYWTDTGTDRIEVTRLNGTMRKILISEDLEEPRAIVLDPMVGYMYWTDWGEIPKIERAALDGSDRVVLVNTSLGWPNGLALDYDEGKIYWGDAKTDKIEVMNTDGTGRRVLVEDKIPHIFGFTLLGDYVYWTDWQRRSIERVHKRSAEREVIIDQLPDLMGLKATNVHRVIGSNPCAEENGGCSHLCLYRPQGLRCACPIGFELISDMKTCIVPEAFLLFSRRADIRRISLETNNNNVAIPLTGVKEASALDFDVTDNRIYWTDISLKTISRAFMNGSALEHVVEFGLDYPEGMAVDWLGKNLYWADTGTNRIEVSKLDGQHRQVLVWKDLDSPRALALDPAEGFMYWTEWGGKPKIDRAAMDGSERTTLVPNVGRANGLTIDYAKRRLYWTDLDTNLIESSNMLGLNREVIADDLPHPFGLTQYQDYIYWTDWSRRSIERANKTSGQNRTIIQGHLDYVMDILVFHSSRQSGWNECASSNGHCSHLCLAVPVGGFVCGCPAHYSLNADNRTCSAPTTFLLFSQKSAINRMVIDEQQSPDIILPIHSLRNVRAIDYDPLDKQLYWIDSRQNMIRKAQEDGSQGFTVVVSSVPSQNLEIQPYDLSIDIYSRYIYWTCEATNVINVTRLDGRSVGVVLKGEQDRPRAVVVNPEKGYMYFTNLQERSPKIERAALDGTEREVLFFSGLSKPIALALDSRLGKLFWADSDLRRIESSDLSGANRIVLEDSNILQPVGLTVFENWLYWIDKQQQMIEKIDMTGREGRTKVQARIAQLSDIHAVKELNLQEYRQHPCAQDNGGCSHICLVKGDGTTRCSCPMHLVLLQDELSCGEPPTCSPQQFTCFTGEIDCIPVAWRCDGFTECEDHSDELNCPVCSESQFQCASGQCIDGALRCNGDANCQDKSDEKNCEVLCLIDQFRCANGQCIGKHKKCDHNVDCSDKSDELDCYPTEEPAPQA
Description: single-point ELISA, IgG1 on coated antigen. The method, then:
FIGS. 1a and 1b show LRP six antibodies. (A) The amino acid sequences of the complementarity determining regions (CDR) of the heavy (H) and the light (L) chains are presented. The antibodies were grouped into unique epitopes as determined by competitive ELISAs. (B) Single-point ELISAs were performed on 96-well Maxisorb immune plates coated with the […] of mouse LRP5, mouse LRP6 and human LRP6 chimeras. The plates were incubated with the purified Fab or IgG1 at the concentrations indicated followed by incubation with horseradish peroxidase (HRP)-conjugated anti-kappa antibody. The wells were washed eight times followed by incubation with 3,3′,5,5′-tetramethylbenzidine/H₂O₂ peroxidase (TMB) substrate for 5-10 min. The reaction was stopped by adding one M H₃PO₄ and the absorbance was measured spectrometrically at 450 nm in a microtiter plate reader.
The full length IgG1s were purified and a single-point ELISA was done to determine the specificity of the antibodies. […] A multipoint competitive ELISA was used to determine the relative affinities of the antibodies to the recombinant antigen.
A general note: In an ELISA, binding on a coated surface is turned into a signal by an enzyme label.

B1: LRP6-E3 IgG1 antibody (antibody, V domains shown)
VH: EVQLVESGGGLVQPGGSLRLSCAASGFNLYYYSMHWVRQAPGKGLEWVASIYSSYGYTYYADSVKGRFTISADTSKNTAYLQMNSLRAEDTAVYYCARYAGYYYYPWAYYGWPFSGLDYWGQGTLVTVSS
VL: DIQMTQSPSSLSASVGDRVTITCRASQSVSSAVAWYQQKPGKAPKLLIYSASSLYSGVPSRFSGSRSGTDFTLTISSLQPEDFATYYCQQAGSAPYHLITFGQGTKVEIKR
notes: Tested as purified full length IgG1
For the molecule B1, the binding result is reported as “no binding”.
